Key:
[1] = molecular target: T1, pro-domain of activin A, N-terminal His6-tagged, released from engineered pro-activin A by HRV 3C protease (human); assay: BLI; His6-tagged pro-activin A complex immobilised through the pro-domain on anti-penta-HIS biosensors, dipped into blank buffer for 600 s; dissociation of the mature domain; 30 °C
T1 sequence (P08476 whole entry, looked up): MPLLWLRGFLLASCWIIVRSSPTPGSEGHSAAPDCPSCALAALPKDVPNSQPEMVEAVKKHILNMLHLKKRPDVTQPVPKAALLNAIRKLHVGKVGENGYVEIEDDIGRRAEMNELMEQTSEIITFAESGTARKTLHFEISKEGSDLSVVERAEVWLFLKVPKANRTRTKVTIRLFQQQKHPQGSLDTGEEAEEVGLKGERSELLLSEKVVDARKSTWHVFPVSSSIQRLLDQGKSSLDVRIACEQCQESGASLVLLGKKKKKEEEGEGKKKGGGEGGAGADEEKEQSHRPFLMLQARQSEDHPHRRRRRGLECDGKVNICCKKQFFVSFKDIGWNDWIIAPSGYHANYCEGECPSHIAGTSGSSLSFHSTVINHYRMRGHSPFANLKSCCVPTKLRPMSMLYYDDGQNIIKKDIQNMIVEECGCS

[2] = molecular target: T1, pro-domain of activin A, N-terminal His6-tagged, released from engineered pro-activin A by HRV 3C protease (human); assay: BLI; reverse phase purified His6-tagged pro-domain immobilised at 25 μg/ml on anti-penta-HIS biosensors; mature activin A in solution; 300 s association, 300 s dissociation; Octet RED96, 30 °C
[3] = molecular target: T1, pro-domain of activin A, N-terminal His6-tagged, released from engineered pro-activin A by HRV 3C protease (human); assay: BLI; His6-tagged pro-activin A complex immobilised through the pro-domain on anti-penta-HIS biosensors, dipped into buffer containing 100 nM FST-288 for 600 s; dissociation of the mature domain; 30 °C
[4] = molecular target: T1, pro-domain of activin A, N-terminal His6-tagged, released from engineered pro-activin A by HRV 3C protease (human); assay: BLI; pro-activin A complex immobilised at 50 μg/ml on anti-penta-HIS biosensors, mature domain removed with 16 μM FST-288, then mature activin A in solution; 600 s association, 600 s dissociation; 30 °C

B1: mature activin A (disulfide-linked dimer of the mature domain of inhibin βA) (ligand)
chain: GLECDGKVNICCKKQFFVSFKDIGWNDWIIAPSGYHANYCEGECPSHIAGTSGSSLSFHSTVINHYRMRGHSPFANLKSCCVPTKLRPMSMLYYDDGQNIIKKDIQNMIVEECGCS
[1]
  koff: 0.00299 s⁻¹
[2]
  Kd: 5 nM
[3]
  dissociation rate with 100 nM FST-288: 0.00445 s⁻¹
[4]
  Kd: 2.3 nM

From paper PMC4932183
